Reference: article PMC12875140 (Nature microbiology, 2026)

Experiments:
[1] = biological target: 6×-His-SUMO-Avs8A (E. coli ECOR07) (UniProt B7LDL1); assay: MST
[2] = biological target: 6×-His-SUMO-Avs8A (E. coli ECOR07) (UniProt B7LDL1); assay: mass photometry; conditions: scale: Bas21 mcp monomers per four Avs8 monomers
6×-His-SUMO-Avs8A = biological target: T1, 6×-His-SUMO-Avs8A (E. coli ECOR07, UniProt B7LDL1 1-1283); assay: MST
T1 sequence (looked up): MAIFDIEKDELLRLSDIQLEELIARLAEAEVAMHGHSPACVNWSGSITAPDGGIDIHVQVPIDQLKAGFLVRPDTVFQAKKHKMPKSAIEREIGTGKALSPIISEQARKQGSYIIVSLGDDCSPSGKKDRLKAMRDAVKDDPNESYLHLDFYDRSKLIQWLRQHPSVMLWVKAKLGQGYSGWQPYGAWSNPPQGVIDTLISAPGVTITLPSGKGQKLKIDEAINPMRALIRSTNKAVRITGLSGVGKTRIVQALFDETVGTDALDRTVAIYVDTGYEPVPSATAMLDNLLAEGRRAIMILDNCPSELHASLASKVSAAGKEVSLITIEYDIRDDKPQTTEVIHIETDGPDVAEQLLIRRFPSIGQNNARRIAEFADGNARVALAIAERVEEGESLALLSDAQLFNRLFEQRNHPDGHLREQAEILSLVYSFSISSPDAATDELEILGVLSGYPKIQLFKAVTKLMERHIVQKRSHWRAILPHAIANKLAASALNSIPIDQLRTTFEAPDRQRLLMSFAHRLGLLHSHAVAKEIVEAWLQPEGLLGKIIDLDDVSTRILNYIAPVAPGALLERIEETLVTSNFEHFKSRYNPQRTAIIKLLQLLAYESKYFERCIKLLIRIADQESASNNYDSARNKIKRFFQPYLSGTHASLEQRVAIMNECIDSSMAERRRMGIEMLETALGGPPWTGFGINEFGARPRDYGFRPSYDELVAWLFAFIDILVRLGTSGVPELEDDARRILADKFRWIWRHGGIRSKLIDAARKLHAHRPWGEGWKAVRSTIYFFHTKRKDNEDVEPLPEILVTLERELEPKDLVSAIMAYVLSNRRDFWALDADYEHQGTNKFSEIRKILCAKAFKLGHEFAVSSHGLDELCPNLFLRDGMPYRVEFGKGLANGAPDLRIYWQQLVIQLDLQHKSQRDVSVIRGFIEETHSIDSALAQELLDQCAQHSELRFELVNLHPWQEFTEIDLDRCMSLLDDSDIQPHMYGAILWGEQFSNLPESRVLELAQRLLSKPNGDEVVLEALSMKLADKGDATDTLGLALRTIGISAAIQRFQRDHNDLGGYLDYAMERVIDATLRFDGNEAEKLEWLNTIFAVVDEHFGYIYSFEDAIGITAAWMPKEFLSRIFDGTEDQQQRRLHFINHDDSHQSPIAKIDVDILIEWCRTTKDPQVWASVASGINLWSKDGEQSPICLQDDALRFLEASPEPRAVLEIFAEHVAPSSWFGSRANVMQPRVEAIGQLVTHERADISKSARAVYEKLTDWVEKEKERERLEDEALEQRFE

Question: Which results are given for “Bas21 major capsid protein (natural protein)”?
Answer: Kd [1]: 12 nM; stoichiometry N [2]: 2

B1: λ gpE major capsid protein (natural protein, phage λ, UniProt P03713 1-341, looked up)
chain: MSMYTTAQLLAANEQKFKFDPLFLRLFFRESYPFTTEKVYLSQIPGLVNMALYVSPIVSGEVIRSRGGSTSEFTPGYVKPKHEVNPQMTLRRLPDEDPQNLADPAYRRRRIIMQNMRDEELAIAQVEEMQAVSAVLKGKYTMTGEAFDPVEVDMGRSEENNITQSGGTEWSKRDKSTYDPTDDIEAYALNASGVVNIIVFDPKGWALFRSFKAVKEKLDTRRGSNSELETAVKDLGKAVSYKGMYGDVAIVVYSGQYVENGVKKNFLPDNTMVLGNTQARGLRTYGCIQDADAQREGINASARYPKNWVTTGDPAREFTMIQSAPLMLLADPDEFVSVQLA
Question: With B1 as the molecule, how does the Kd (6×-His-SUMO-Avs8A) read?
Answer: Its Kd is 124 nM.
